Measured values reported in US20210072252A1.

T1: Leu
T1 sequence (peptide): LGMMGSSC


Legend:
[1] = biological target: peptide with N-terminal phosphotyrosine; assay: biolayer interferometry (Blitz), peptide-coated sensor, NAAB in 1x PBS, 1:1 fit, kd/ka
Leu = biological target: T1, Leu; assay: single-molecule TIRF, Cy5-labelled protein on peptide immobilized on nanogel

Kd [1]	Counts (Leu)	Binder
1070 nM	–	Phosphotyrosine NAAB (designed binder) MDEFEMIKRNTSEIISELREVLKKDEKSALIGFEPSGKIHLGHYLQKKMIDLQNAGFDIIIPLADLHAYLNQKGELDEIRKIGDYNKKVFEAMLKAKYVYGSEFQLDKYTLNVYRLALKTTLKARRSMELIAREDENPVAEVIYPIMQVNGCHYKGVDVAVGGMEQRKIMLARELLPKKVVCIHPVLTGLDGEGKMSSSGNFIAVDDSPEEIRAFKKAYCPAGVVEGNPEIAKYFLEYPLTIKPEKFGGDLTVNSYEESLFKNKELHPMDLKAVAEELIKILEPIRK
–	49 counts	engineered MetRS domain (Met NAAB), GST-MetRS fusion labeled with Cy5 (designed binder, not shown: a dimerising Fc or GST, Cy5 fluorophore on lysine side chains) AKKILVTCASPYANGSIHLGHMLEHIQADVWVRYQRMRGHEVNFICADDAHGTPIMLKAQQLGITPEQMIGEMSQEHQTDFAGFNISYDNYHSTHSEENRQLSELIYSRLKENGFIKNRTISQLYDPEKGMFLPDRFVKGTCPKCKSPDQYGDNCEVCGATYSPTELIEPKSVVSGATPVMRDSEHFFFDLPSFSEMLQAWTRSGALQEQVANKMQEWFESGLQQWDISRDAPYFGFEIPNAPGKYFYVWLDAPIGLMGSFKNLCDKRGDSVSFDEYWKKDSTAELYHFIGKGIVYFLSLFWPAMLEGSNFRKPSNLFVHGYVTVNGAKMSKSRGTFIKASTWLNHFDADSLRYYYTAKLSSRIDDIDLNLEDFVQRVNADIVNKVVNLASRNAGFINKRFDGVLASELADPQLYKTFTDAAEVIGEAWESREFGKAVREIMALADLANRYVDEQAPWVVAKQEGRDADLQAICSMGINLFRVLMTYLKPVLPKLTERAEAFLNTELTWDGIQQPLLGHKVNPFKALYNRIDMRQVEALVEASK
